Measurements: article PMC5807433, “PP5 (PPP5C) is a phosphatase of Dvl2” (Scientific Reports, 2018)

Biological target: T1, FLAG-Dvl2 (full-length human Dishevelled 2) (human, UniProt O14641 1-736)
T1 construct: Dishevelled 2 (Dvl2), human, full length; also called FLAG-tagged Dvl2; full-length Dvl2; source: HEK293T, transfected (pCS2+), in lysate; also purified from transfected HEK293T with FLAG M2 beads and eluted with FLAG peptide; not shown: FLAG, N-terminal, kept
T1 sequence (looked up): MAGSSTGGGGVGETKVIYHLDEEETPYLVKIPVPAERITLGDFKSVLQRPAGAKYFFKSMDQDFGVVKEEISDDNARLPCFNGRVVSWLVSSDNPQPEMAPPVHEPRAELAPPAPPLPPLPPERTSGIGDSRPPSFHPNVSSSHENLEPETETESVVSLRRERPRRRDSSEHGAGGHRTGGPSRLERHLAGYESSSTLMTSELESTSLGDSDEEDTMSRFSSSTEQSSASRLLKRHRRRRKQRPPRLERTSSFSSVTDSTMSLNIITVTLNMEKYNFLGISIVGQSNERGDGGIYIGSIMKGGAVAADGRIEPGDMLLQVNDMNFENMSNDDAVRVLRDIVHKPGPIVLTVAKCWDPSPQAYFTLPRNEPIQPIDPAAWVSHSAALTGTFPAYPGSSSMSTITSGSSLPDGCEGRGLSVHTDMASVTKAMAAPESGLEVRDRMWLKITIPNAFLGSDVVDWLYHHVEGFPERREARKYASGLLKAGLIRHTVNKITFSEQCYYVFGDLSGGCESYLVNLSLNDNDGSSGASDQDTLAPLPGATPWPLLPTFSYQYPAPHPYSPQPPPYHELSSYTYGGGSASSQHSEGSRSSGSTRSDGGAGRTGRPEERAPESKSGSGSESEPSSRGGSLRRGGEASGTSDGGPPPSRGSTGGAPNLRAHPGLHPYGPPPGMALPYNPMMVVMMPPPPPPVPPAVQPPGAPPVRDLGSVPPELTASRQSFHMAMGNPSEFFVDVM
Experiment: pull-down; GST pull-down: FLAG-Dvl2 purified from transfected HEK293T incubated with PP5 protein purified from E. coli and Glutathione Sepharose 4B beads; GST as negative control
Details: both partners purified

binding result: binds
B1: GST-PP5 (wild type) (enzyme, human, UniProt P53041 1-499, looked up)
chain: MAMAEGERTECAEPPRDEPPADGALKRAEELKTQANDYFKAKDYENAIKFYSQAIELNPSNAIYYGNRSLAYLRTECYGYALGDATRAIELDKKYIKGYYRRAASNMALGKFRAALRDYETVVKVKPHDKDAKMKYQECNKIVKQKAFERAIAGDEHKRSVVDSLDIESMTIEDEYSGPKLEDGKVTISFMKELMQWYKDQKKLHRKCAYQILVQVKEVLSKLSTLVETTLKETEKITVCGDTHGQFYDLLNIFELNGLPSETNPYIFNGDFVDRGSFSVEVILTLFGFKLLYPDHFHLLRGNHETDNMNQIYGFEGEVKAKYTAQMYELFSEVFEWLPLAQCINGKVLIMHGGLFSEDGVTLDDIRKIERNRQPPDSGPMCDLLWSDPQPQNGRSISKRGVSCQFGPDVTKAFLEENNLDYIIRSHEVKAEGYEVAHGGRCVTVFSAPNYCDQMGNKASYIHLQGSDLRPQFHQFTAVPHPNVKPMAYANTLLQLGMM
notes: Protein phosphatase 5 (PP5, PPP5C), wild type; Probably full length; also called PP5 protein purified from E. coli; bacterially expressed and purified PP5; source: E. coli BL21 (pPGH vector, IPTG), purified with Glutathione Sepharose 4B beads; not shown: GST, N-terminal, kept
